Measurements: patent US20240209044

What was measured:
[1] = molecular target: T1, ZAP, zeta activating peptide, the PKCzeta uORF-encoded peptide
T1 chain: MGPREARLQVHQLQTAGP

[2] = molecular target: T2, ZIP, zeta inhibitory peptide, the pseudo-substrate peptide of the PKCzeta regulatory domain
T2 chain: SIYRRGARRWRKL

Protein	phosphorylation of MBP by PKC isoforms (32P-γATP in vitro kinase assay) [1]	PKCzeta phosphorylation of MBP (32P-γATP in vitro kinase assay) [1]	kinase activity (phosphorylation of MBP, 32P-γ-ATP in vitro kinase assay, dose series of peptide) [1]	kinase activity (phosphorylation of MBP, 32P-γ-ATP in vitro kinase assay, dose series of peptide) [2]
PKCtheta, HA-tagged, immunoprecipitated from HEK293T lysate (protein) MSPFLRIGLSNFDCGSCQSCQGEAVNPYCAVLVKEYVESENGQMYIQKKPTMYPPWDSTFDAHINKGRVMQIIVKGKNVDLISETTVELYSLAERCRKNNGKTEIWLELKPQGRMLMNARYFLEMSDTKDMNEFETEGFFALHQRRGAIKQAKVHHVKCHEFTATFFPQPTFCSVCHEFVWGLNKQGYQCRQCNAAIHKKCIDKVIAKCTGSAINSRETMFHKERFKIDMPHRFKVYNYKSPTFCEHCGTLLWGLARQGLKCDACGMNVHHRCQTKVANLCGINQKLMAEALAMIESTQQARCLRDTEQIFREGPVEIGLPCSIKNEARPPCLPTPGKREPQGISWESPLDEVDKMCHLPEPELNKERPSLQIKLKIEDFILHKMLGKGSFGKVFLAEFKKTNQFFAIKALKKDVVLMDDDVECTMVEKRVLSLAWEHPFLTHMFCTFQTKENLFFVMEYLNGGDLMYHIQSCHKFDLSRATFYAAEIILGLQFLHSKGIVYRDLKLDNILLDKDGHIKIADFGMCKENMLGDAKTNTFCGTPDYIAPEILLGQKYNHSVDWWSFGVLLYEMLIGQSPFHGQDEEELFHSIRMDNPFYPRWLEKEAKDLLVKLFVREPEKRLGVRGDIRQHPLFREINWEELERKEIDPPFRPKVKSPFDCSNFDKEFLNEKPRLSFADRALINSMDQNMFRNFSFMNPGMERLIS	the peptide had no effect on the phosphorylation of MBP by the PKC isoforms PKCeta (PKCη), PKCtheta (PKCθ), PKCgamma (PKCγ), and PKCalpha (PKCα)	–	–	–
PKCepsilon, HA-tagged, immunoprecipitated from HEK293T lysate (protein) MVVFNGLLKIKICEAVSLKPTAWSLRHAVGPRPQTFLLDPYIALNVDDSRIGQTATKQKTNSPAWHDEFVTDVCNGRKIELAVFHDAPIGYDDFVANCTIQFEELLQNGSRHFEDWIDLEPEGRVYVIIDLSGSSGEAPKDNEERVFRERMRPRKRQGAVRRRVHQVNGHKFMATYLRQPTYCSHCRDFIWGVIGKQGYQCQVCTCVVHKRCHELIITKCAGLKKQETPDQVGSQRFSVNMPHKFGIHNYKVPTFCDHCGSLLWGLLRQGLQCKVCKMNVHRRCETNVAPNCGVDARGIAKVLADLGVTPDKITNSGQRRKKLIAGAESPQPASGSSPSEEDRSKSAPTSPCDQEIKELENNIRKALSFDNRGEEHRAASSPDGQLMSPGENGEVRQGQAKRLGLDEFNFIKVLGKGSFGKVMLAELKGKDEVYAVKVLKKDVILQDDDVDCTMTEKRILALARKHPYLTQLYCCFQTKDRLFFVMEYVNGGDLMFQIQRSRKFDEPRSRFYAAEVTSALMFLHQHGVIYRDLKLDNILLDAEGHCKLADFGMCKEGILNGVTTTTFCGTPDYIAPEILQELEYGPSVDWWALGVLMYEMMAGQPPFEADNEDDLFESILHDDVLYPVWLSKEAVSILKAFMTKNPHKRLGCVASQNGEDAIKQHPFFKEIDWVLLEQKKIKPPFKPRIKTKRDVNNFDQDFTREEPVLTLVDEAIVKQINQEEFKGFSYFGEDLMP	enhanced the phosphorylation of PKC isoforms of the novel PKC sub-family of PKCzeta, PKCdelta and PKCepsilon	–	–	–
PKCzeta, HA-tagged, immunoprecipitated from HEK293T lysate (protein) MPSRTGPKMEGSGGRVRLKAHYGGDIFITSVDAATTFEELCEEVRDMCRLHQQHPLTLKWVDSEGDPCTVSSQMELEEAFRLARQCRDEGLIIHVFPSTPEQPGLPCPGEDKSIYRRGARRWRKLYRANGHLFQAKRFNRRAYCGQCSERIWGLARQGYRCINCKLLVHKRCHGLVPLTCRKHMDSVMPSQEPPVDDKNEDADLPSEETDGIAYISSSRKHDSIKDDSEDLKPVIDGMDGIKISQGLGLQDFDLIRVIGRGSYAKVLLVRLKKNDQIYAMKVVKKELVHDDEDIDWVQTEKHVFEQASSNPFLVGLHSCFQTTSRLFLVIEYVNGGDLMFHMQRQRKLPEEHARFYAAEICIALNFLHERGIIYRDLKLDNVLLDADGHIKLTDYGMCKEGLGPGDTTSTFCGTPNYIAPEILRGEEYGFSVDWWALGVLMFEMMAGRSPFDIITDNPDMNTEDYLFQVILEKPIRIPRFLSVKASHVLKGFLNKDPKERLGCRPQTGFSDIKSHAFFRSIDWDLLEKKQALPPFQPQITDDYGLDNFDTQFTSEPVQLTPDDEDAIKRIDQSEFEGFEYINPLLLSTEESV	enhanced the phosphorylation of PKC isoforms of the novel PKC sub-family of PKCzeta, PKCdelta and PKCepsilon	did not inhibit PKCzeta phosphorylation of MBP, rather significantly increased the phosphorylation on MBP	the ZAP peptide activates the kinase activity of both PKCzeta and PKMzeta	the known PS ZIP peptide inhibits their activity
